Assay results reported in patent US20030171557.

Key:
[1] = target: GST-IkBα protein [GST: P08515]
[2] = target: T1, IkBα C-terminal peptide
T1 chain: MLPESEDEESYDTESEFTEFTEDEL

[3] = target: GST protein [GST: P08515]
[4] = target: casein (Sigma)

Chain of GST protein [GST: P08515] (P08515 whole entry): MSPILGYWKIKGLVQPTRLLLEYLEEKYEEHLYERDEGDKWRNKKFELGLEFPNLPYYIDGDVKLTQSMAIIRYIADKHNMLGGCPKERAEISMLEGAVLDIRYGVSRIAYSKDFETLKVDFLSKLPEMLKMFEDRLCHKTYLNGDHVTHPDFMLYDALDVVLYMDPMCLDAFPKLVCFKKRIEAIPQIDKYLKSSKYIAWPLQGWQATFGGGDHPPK

B1: GST fusion protein with wild VRK1 protein (protein)
chain: MPRVKAAQAGRQSSAKRHLAEQFAVGEIITDMAKKEWKVGLPIGQGGFGCIYLADMNSSESVGSDAPCVVKVEPSDNGPLFTELKFYQRAAKPEQIQKWIRTRKLKYLGVPKYWGSGLHDKNGKSYRFMIMDRFGSDLQKIYEANAKRFSRKTVLQLSLRILDILEYIHEHEYVHGDIKASNLLLNYKNPDQVYLVDYGLAYRYCPEGVHKEYKEDPKRCHDGTIEFTSIDAHNGVAPSRRGDLEILGYCMIQWLTGHLPWEDNLKDPKYVRDSKIRYRENIASLMDKCFPEKNKPGEIAKYMETVKLLDYTEKPLYENLRDILLQGLKAIGSKDDGKLDLSVVENGGLKAKTITKKRKKEIEESKEPGVEDTEWSNTQTEEAIQTRSRTRKRVQK
[1]
  kinase assay, phosphorylation of substrate ([γ-32P]-ATP, SDS-PAGE, 10 mM Mg): wild VRK1 protein phosphorylates casein and GST-IkBα
[2]
  kinase assay, phosphorylation of substrate ([γ-32P]-ATP, SDS-PAGE): Arrows indicate ... phosphorylated IkBα C-terminal peptide (“P”)
[3]
  kinase assay, phosphorylation of substrate ([γ-32P]-ATP, SDS-PAGE, 10 mM Mg): GST protein was not phosphorylated by VRK1
[4]
  kinase assay with casein as substrate in the presence of Mg, Mn, Zn or Ca at 2 mM or 10 mM: VRK1 exhibits phosphorylation activity in the presence of all divalent cations except for Zn ... especially strong activity in the presence of Mn
  kinase assay, phosphorylation of substrate ([γ-32P]-ATP, SDS-PAGE, 10 mM Mg): wild VRK1 protein phosphorylates casein and GST-IkBα
